Assay results taken from paper PMC8448314.

Target: Fc-tagged SARS-CoV-2 RBD (residues 319-535, C-terminal human IgG4 Fc region) (SARS-CoV-2 | human) (UniProt P0DTC2)
Assay: SEC; Superose 6 Increase 10/300 GL gel filtration of each purified protein alone

## Fc-tagged SARS-CoV-2 RBD (residues 319-535, C-terminal human IgG4 Fc region) (from UniProt P0DTC2 319-535) (Fc fusion)
  stoichiometry N: 2
